The results in this text go back to patent publication US20240219403A1, “METHODS FOR INHIBITING KRAS ONCOPROTEIN THROUGH ENHANCED GTPASE ACTIVITY” (Memorial Sloan-Kettering Cancer Center, priority 2021, published 2024).

Sequences and labels used below:
B1: RGS4: regulator of G protein signaling 4, RGS family member (protein)
chain: MCKGLAGLPASCLRSAKDMKHRLGFLLQKSDSCEHNSSHNKKDKVVICQRVSQEEVKKWAESLENLISHECGLAAFKAFLKSEYSEENIDFWISCEEYKKIKSPSKLSPKAKKIYNEFISVQATKEVNLDSCTREETSRNMLEPTITCFDEAQKKIFNLMEKDSYRRFLKSRFYLDLVNPSSCGAEKQKGAKSSADCASLVPQCA
B2: RASA1: canonical RAS-GAP (protein)
chain: MEKIMPEEEYSEFKELILQKELHVVYALSHVCGQDRTLLASILLRIFLHEKLESLLLCTLNDREISMEDEATTLFRATTLASTLMEQYMKATATQFVHHALKDSILKIMESKQSCELSPSKLEKNEDVNTNLTHLLNILSELVEKIFMASEILPPTLRYIYGCLQKSVQHKWPTNTTMRTRVVSGFVFLRLICPAILNPRMFNIISDSPSPIAARTLILVAKSVQNLANLVEFGAKEPYMEGVNPFIKSNKHRMIMFLDELGNVPELPDTTEHSRTDLSRDLAALHEICVAHSDELRTLSNERGAQQHVLKKLLAITELLQQKQNQYTKTNDVR
B3: NF1: canonical RAS-GAP; recombinant NF1 GAP related domain (1198-1530aa) (protein)
chain: ETVLADRFERLVELVTMMGDQGELPIAMALANVVPCSQWDELARVLVTLFDSRHLLYQLLWNMFSKEVELADSMQTLFRGNSLASKIMTFCFKVYGATYLQKLLDPLLRIVITSSDWQHVSFEVDPTRLEPSESLEENQRNLLQMTEKFFHAIISSSSEFPPQLRSVCHCLYQATCHSLLNKATVKEKKENKKSVVSQRFPQNSIGAVGSAMFLRFINPAIVSPYEAGILDKKPPPRIERGLKLMSKILQSIANHVLFTKEEHMRPFNDFVKSNFDAARRFFLDIASDCPTSDAVNHSLSFISDGNVLALHRLLWNNQEKIGQYLSSNRDHKA
modifications: left off: small tags and cut ends

For this assay, the target named is T1, KRAS^G12C (Homo sapiens, UniProt P01116, G12C).
T1 construct: endogenous in cells; host or cells: H358, H2122, H2030, SW1573 (KRAS G12C-mutant lung cancer lines, ATCC)
In words: GTPase assays of purified GTP-loaded KRAS^G12C incubated with GAP proteins (γ-phosphate, α-phosphate, continuous phosphate release). It counts as biochemical. Particulars: purified proteins. The protocol: GTP[γ^32P] hydrolysis assay. KRAS proteins (0.5 μg) were reacted with 0.04 μM GTP[γ^32P] (6000 Ci/mmol; PerkinElmer Life Sciences) in 100 μL loading buffer (50 mM HEPES, pH 7.5, 50 mM NaCl, 1 mM DTT, 0.1 mM EGTA, 10 mM EDTA, and 1 mg/mL BSA) for 10 min at 30° C. (5, 40). Loading reactions were stopped by placing on ice and adding MgCl2 to a final concentration of 20 mM. The GTPase assays were performed at 30° C. in 100 μL mixtures containing 20 nM of loaded KRAS and either hydrolysis buffer (25 mM HEPES pH 7.5, 50 mM NaCl, 1 mM DTT, 1 mM MgCl2 and 1 mg/mL BSA) alone, or in combination with WCE or purified RGS3 (0.08-0.4 μg/μL). Equimolar comparisons of NF1, RASA1 and RGS3 were carried out using the continuous hydrolysis assay (see below). Reactions were stopped at the indicated time by filtering through 0.45-μm nitrocellulose membrane filters. The filters were washed 3 times with 0.2 mL of ice-cold hydrolysis buffer, air dried, and processed by autoradiography. Reaction rates were determined by fitting an exponential curve to the data, which was normalized to the baseline value. For the determination of protein stability, the hydrolysis reactions were stopped by boiling at 100° C. for 10 min in Laemmli buffer. The samples were then subjected to SDS-PAGE followed by Coomasie staining (CBB) or immunoblotting with a His-specific antibody.
GTP[α^32P] hydrolysis assay. KRAS proteins were loaded with GTP[α^32P] (3000 Ci/mmol; PerkinElmer Life Sciences) and subjected to the hydrolysis reaction as indicated above. Upon completion of the hydrolysis reaction and immobilization of KRAS-nucleotide complexes on nitrocellulose membranes, the nucleotides were eluted by incubating with elution buffer (50 mM HEPES pH 7.5, 50 mM NaCl, 1 mM DTT, 0.1 mM EGTA, 0.1% SDS, 10 mM EDTA, 1 mM GTP and 1 mM GDP) for 3 min at 85° C. […]
Continuous hydrolysis assay (two-step detection of inorganic phosphate). […] The reaction was monitored by reading the absorbance at 360 nm every 10 to 20 s for ˜16-60 min at room temperature. […]
Regarding B1, the “effect on GTP-hydrolysis by KRAS^G12C” value is “enhance the KRAS GTPase activity”.
Next, B2: “no measurable effect”; B3: “some activity”.
